Laboratory results taken from US7744896 (ISTITUTO SUPERIORE DI SANITA, dated 2010).

Assays:
[1] = target: T1, αvβ3 integrin (vitronectin receptor) on cytokine-activated human umbilical vein endothelial (HUVE) cells (human, UniProt P06756 31-1048; P05106 27-788); assay: conclusion of the uptake inhibition experiments on IC-activated HUVE cells
T1 construct: whole, on cells; also called VN receptor

[2] = target: T2, α5β1 integrin (fibronectin receptor) on cytokine-activated human umbilical vein endothelial (HUVE) cells (human, UniProt P08648 42-1049; P05556 21-798); assay: as above
T2 construct: whole, on cells; also called FN receptor
T2 sequence (P08648 42-1049, chain 1 of 2): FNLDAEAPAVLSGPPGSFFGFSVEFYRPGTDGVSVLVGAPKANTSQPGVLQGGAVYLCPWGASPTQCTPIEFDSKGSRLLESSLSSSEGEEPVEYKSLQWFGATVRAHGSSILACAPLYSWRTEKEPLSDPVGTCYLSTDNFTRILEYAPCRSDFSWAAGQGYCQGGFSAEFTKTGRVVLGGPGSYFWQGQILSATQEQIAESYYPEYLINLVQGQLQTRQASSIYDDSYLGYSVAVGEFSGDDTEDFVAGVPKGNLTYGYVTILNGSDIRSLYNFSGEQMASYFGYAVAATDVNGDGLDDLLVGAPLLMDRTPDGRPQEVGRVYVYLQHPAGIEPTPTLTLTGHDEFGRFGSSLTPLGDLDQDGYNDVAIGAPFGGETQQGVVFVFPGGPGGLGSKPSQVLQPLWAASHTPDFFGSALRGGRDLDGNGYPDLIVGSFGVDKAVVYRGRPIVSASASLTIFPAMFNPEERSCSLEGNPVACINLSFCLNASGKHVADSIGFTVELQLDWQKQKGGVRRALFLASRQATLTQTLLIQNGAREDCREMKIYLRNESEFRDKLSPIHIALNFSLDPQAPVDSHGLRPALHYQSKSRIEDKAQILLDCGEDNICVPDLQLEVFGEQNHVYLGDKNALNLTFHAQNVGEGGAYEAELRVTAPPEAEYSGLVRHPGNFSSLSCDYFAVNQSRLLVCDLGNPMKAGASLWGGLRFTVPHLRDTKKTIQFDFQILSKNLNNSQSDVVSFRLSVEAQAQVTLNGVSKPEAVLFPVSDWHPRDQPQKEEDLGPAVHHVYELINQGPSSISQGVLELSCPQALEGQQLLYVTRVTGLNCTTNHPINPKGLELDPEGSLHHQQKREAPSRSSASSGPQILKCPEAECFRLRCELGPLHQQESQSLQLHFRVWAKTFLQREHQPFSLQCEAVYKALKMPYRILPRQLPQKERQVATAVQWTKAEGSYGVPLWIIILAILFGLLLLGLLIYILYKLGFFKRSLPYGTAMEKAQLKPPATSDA
T2 sequence (P05556 21-798, chain 2 of 2): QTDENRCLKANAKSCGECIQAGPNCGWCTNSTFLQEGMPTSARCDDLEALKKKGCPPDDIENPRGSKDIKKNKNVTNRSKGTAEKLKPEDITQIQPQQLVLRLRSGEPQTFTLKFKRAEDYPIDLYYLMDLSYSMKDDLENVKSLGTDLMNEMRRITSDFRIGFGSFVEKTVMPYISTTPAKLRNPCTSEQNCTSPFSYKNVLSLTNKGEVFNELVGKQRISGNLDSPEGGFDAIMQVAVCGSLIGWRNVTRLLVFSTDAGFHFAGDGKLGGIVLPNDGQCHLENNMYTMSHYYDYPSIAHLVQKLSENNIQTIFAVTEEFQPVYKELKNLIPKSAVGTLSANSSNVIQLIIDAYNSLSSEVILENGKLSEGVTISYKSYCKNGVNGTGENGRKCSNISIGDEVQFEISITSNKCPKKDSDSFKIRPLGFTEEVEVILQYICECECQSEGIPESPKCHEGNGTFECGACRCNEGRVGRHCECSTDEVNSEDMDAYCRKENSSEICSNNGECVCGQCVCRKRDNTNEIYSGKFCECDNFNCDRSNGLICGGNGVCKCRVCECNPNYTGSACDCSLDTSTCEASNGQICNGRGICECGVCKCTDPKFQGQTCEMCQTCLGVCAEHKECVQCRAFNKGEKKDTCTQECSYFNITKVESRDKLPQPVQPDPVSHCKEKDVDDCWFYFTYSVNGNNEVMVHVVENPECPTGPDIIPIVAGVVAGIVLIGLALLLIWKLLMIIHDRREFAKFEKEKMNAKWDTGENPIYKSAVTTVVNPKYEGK

T1 sequence (P06756 31-1048, chain 1 of 2): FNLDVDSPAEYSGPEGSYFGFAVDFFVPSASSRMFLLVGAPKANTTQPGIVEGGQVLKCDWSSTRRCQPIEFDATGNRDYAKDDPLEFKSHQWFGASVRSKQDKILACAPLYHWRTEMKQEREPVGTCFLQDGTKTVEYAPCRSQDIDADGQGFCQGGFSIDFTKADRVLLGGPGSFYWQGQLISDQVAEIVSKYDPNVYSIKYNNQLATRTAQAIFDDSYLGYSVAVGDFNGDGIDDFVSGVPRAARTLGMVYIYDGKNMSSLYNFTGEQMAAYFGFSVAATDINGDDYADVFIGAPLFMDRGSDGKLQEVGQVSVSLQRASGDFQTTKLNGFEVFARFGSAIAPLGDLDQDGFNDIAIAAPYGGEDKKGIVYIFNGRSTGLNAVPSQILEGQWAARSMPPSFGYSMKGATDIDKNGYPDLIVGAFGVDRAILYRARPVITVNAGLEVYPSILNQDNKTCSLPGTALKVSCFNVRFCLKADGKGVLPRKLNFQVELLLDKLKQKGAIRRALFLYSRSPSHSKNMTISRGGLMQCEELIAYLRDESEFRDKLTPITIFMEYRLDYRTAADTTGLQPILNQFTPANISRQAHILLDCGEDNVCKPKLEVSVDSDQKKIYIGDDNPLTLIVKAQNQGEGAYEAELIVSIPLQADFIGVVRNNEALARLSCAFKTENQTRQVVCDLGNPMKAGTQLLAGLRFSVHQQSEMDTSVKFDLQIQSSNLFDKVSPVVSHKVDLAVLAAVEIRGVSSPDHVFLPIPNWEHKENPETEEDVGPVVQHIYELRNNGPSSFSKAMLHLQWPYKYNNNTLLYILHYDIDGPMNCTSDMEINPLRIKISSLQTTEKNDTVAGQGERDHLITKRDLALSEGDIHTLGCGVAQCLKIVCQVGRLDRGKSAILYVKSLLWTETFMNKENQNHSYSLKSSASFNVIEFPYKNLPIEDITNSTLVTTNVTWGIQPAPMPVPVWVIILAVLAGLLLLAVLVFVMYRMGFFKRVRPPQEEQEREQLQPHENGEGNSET
T1 sequence (P05106 27-788, chain 2 of 2): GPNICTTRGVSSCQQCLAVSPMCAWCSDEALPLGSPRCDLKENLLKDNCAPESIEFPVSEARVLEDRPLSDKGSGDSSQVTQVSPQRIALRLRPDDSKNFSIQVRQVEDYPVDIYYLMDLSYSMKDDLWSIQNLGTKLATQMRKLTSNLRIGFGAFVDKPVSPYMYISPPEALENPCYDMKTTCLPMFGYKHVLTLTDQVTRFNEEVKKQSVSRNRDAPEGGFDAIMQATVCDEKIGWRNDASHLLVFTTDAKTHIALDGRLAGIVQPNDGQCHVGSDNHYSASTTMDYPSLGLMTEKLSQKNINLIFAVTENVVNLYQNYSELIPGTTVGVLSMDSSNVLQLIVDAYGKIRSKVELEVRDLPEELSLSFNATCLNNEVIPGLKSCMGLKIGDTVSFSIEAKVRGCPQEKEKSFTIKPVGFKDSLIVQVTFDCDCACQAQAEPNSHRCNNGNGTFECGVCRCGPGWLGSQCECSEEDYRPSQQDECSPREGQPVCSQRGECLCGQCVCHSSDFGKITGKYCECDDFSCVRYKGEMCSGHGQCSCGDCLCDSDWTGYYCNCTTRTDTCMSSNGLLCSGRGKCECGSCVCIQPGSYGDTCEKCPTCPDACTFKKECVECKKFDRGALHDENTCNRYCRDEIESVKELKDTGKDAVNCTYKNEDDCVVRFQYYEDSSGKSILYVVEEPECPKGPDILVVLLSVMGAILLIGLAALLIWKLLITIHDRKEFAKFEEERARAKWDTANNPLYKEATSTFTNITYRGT

B1: rhodaminated Tat protein (other)
chain: MEPVDPRLEPWKHPGSQPKTACTNCYCKKCCFHCQVCFITKALGISYGRKKRRQRRRPPQGSQTHQVSLSKQPTSQSRGDPTGPKE
modifications: rhodaminated (TRITC) at lysine residues
notes: Recombinant Tat labelled with TRITC; also called rhodaminated biologically-active Tat protein
binding result [1]: binds | binding result [2]: binds
